Results published in article PMC4705688.

Molecular target: His-Cmr (Mycobacterium tuberculosis H37Rv, UniProt P9WMH5 1-244)
Experiment: EMSA

Sequence of His-Cmr (P9WMH5 whole entry): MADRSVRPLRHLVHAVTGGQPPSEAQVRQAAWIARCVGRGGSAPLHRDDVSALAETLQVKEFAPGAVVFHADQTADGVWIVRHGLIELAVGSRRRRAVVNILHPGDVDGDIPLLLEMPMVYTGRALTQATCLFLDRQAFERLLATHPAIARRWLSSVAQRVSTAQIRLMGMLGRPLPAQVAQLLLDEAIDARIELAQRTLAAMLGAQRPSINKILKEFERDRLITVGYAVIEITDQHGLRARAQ

B1: 1C1 40 bp overlap (dsDNA)
DNA 1: GCGTGGTTCAGCTTGTCACCGGTGACACTGTGTTGGCTTC
DNA 2: GAAGCCAACACAGTGTCACCGGTGACAAGCTGAACCACGC
B1: binds.
